Source: patent US20230021840A1, “USE OF GP73 INHIBITOR IN PREPARATION OF MEDICINE FOR TREATING DIABETES” (BEIJING SUNGEN BIOMEDICAL TECHNOLOGY CO. LTD., priority 2020, published 2023)
Entries after “also recorded” stand apart in the source; their conditions may differ.

Assays:
[1] = system: mice with type II diabetes; test: GP73 siRNA treatment of high-fat-diet-induced mice with type II diabetes; type: in vivo, C57BL/6N mice; conditions: for HbA1c: serum
Procedure: 2. In the present invention, the detection method of glucose in mice is as follows: all blood samples were collected from the tail, and the blood glucose was tested by a full-automatic glucometer (ACCU-CHEK; Roche) through a glucose oxidase method; normal mice and diabetic mice were fasting for 6 h, and fasting blood glucose was tested; the random blood glucose level was tested at 9:00 am; and when the blood glucose level is greater than 35 mM (the upper limit of glucometer), it was recorded as 35 mM.
3. In the present invention, the detection method of the glycometabolism experiment is as follows: In the glucose, insulin and pyruvate tolerance tests, mice were fasting for 12 h and then injected with D-glucose (Sigma, Art. No.: G8270, 1.5 g/kg body weight), insulin (Sigma, Art. No.: 19278, 0.75 U/kg body weight) or sodium pyruvate (Sigma, Art. No.: P2256, 2 g/kg body weight) at […]; at 0 min, 15 min, 30 min, 45 min, 60 min, 120 min and 24 h after injection, blood was collected from the tail vein of mice, and blood glucose was tested to determine the intraperitoneal glucose tolerance (IPGTT), pyruvate tolerance (PTT) and insulin tolerance (ITT).
Experimental method: On this basis, C57BL/6N mice (male, 8-10 weeks old, 20-22 g) were selected, and after feeding high-fat diet for 20 weeks, the animals were fasting for 6 h, and the fasting blood glucose was tested. […] According to the fasting blood glucose, the mice were randomly divided into the Ctr siRNA group and the GP73 siRNA experimental group, 6 mice per group. The mice were first injected with 4 nM at the tail vein, and then intraperitoneally injected with 4 nM, once every 5 days. The mice were sacrificed 4 weeks after the first injection, and the indicators such as blood glucose and glycated hemoglobin were detected.

endogenous GP73 = test: Knockdown of endogenous GP73 in H22 cells (western blotting); type: cell-based; conditions: H22 mouse liver cells; 24 h after transfection
Procedure: Experimental method: A total of 9 RNAi oligos (Table 7, SEQ ID NOs. 1-9) targeting different sites of mouse GP73 were firstly synthesized, and H22 mouse liver cells were transfected and collected for the western blotting experiments 24 h after transfection.

glucagon [2] = biological target: glucagon (UniProt P01275); test: SPR, Reichert 4SPR
glucagon [3] = biological target: glucagon (UniProt P01275); test: microscale thermophoresis (MST), His-tagged GP73 labelled with RED-tris-NTA, GCG titrated
glucagon [4] = biological target: glucagon (UniProt P01275); test: OpenSPR, GP73 coupled to amine sensor chip, glucagon in mobile phase
PKA = PKA phosphorylation and kinase activity in HepG2 cells (western blotting); type: cell-based; conditions: versus PBS control
GCG [5] = biological target: T1, GCG (Homo sapiens, UniProt P01275); test: Affinity of recombinant soluble GP73 and GCG by microscale thermophoresis (MST); type: binding
T1 construct: purchased MCE HY-P0082

GCG [6] = biological target: T1, GCG; test: Affinity of recombinant soluble GP73 and GCG by Reichert 4SPR; type: binding
GCG [7] = biological target: T1, GCG; test: Affinity of recombinant soluble GP73 and GCG by OpenSPR; type: binding

glucagon, sequence (P01275 53-81 limits assumed): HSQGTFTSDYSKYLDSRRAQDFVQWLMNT

“Ctr siRNA: RNAi oligos with disrupted sequences used as control, AUCACACCAACACAGGUCCTT (chemistry not given here)” was tested, and the ALT ([1]; 4 weeks after treatment) was 77 ± 22, the AST ([1]; 4 weeks after treatment) was 243 ± 65 and the CHO ([1]; 4 weeks after treatment) was 5.62 ± 0.97. The TG ([1]; 4 weeks after treatment) was 1.27 ± 0.37, the HbA1c ([1]; 4 weeks after treatment) was 4.39±0.67% and the HbA1c ([1]; 4 weeks after treatment, listed as Ctrl siRNA) was 4.39 ± 0.67%. It also gave a Fasting blood glucose ([1]; Week 0) of 12.0 ± 1.7 mM and a Fasting blood glucose ([1]; Week 4, injection once every 5 days) of 12.2 ± 3.0 mM.

With “No. 4: GP73 siRNA 995-CCAACAGGCAUCCAUCCAATT (unmodified) (2'-OMe throughout, phosphorothioates at both ends, 3'-cholesterol, counts not given here)” the “Knockdown efficiency of endogenous GP73” value (endogenous GP73) was “good knockdown efficiency”.

recombinant monkey soluble GP73 showed a Kd (glucagon [2]) of 350 nM and a Kd (glucagon [3]) of 120 nM.

Work on recombinant mouse soluble GP73 yielded a Kd (glucagon [2]) of 1550 nM, a Kd (glucagon [3]) of 410 nM and a Kd (glucagon [4]) of 3210 nM.

Molecule recombinant rat soluble GP73 has a Kd (glucagon [2]) of 730 nM, a Kd (glucagon [3]) of 580 nM and a Kd (glucagon [4]) of 3190 nM.

B1: rhsGP73: recombinant human soluble GP73, NCBI Reference Sequence NP_057632.2 (protein)
chain: AAAERGAVELKKNEFQGELEKQREQLDKIQSSHNFQLESVNKLYQDEKAVLVNNITTGERLIRVLQDQLKTLQRNYGRLQQDVLQFQKNQTNLERKFSYDLSQCINQMKEVKEQCEERIEEVTKKGNEAVASRDLSENNDQRQQLQALSEPQPRLQAAGLPHTEVPQGKGNVLGNSKSQTPAPSSEVVLDSKRQVEKEETNEIQVVNEEPQRDRLPQEPGREQVVEDRPVGGRGFGGAGELGQTPQVQAALSVSQENPEMEGPERDQLVIPDGQEEEQEAAGEGRNQQKLRGEDDYNMDENEAESETDKQAALAGNDRNIDVFNVEDQKRDTINLLDQREKRNHTL
In the case of B1, the “PKA phosphorylation level (PKA-p) and kinase activity (RRXρS/T)” value (PKA) is reported as “significantly up-regulated; also recorded: promotes the phosphorylation level (PKA-p) and kinase activity”, the Kd (GCG [5]) is reported as 2450 nM and the Kd (GCG [6]) is reported as 2830 nM. It also gave a Kd (GCG [7]) of 2800 nM.
